Laboratory results taken from paper PMC7581431.

Columns and labels:
[1] = biological target: CELSR1 [human (endogenous in Flp-In-T-REx-293)]; experiment: BioID proximity labeling (mass spectrometry); settings: +Wnt3a
[2] = biological target: Lip-NKD-HisC (human (identical sequence in mouse and human)) (UniProt Q969G9); experiment: aggregation and co-aggregation assay read by PAGE; purified proteins in 15 mM acetate, 150 mM NaCl, pH 5.0 mixed in different ratios; after 10 min 1 M Tris-HCl pH 8.0 added to 200 mM; after 20 min boiled 10 min in LDS sample buffer; PAGE under denaturing and reducing conditions
[3] = biological target: Notch2 [human (endogenous in Flp-In-T-REx-293)]; experiment: BioID proximity labeling (mass spectrometry); settings: +Wnt3a
[4] = biological target: CK1ε; experiment: BioID proximity labeling (mass spectrometry); settings: +Wnt3a

Chain of Lip-NKD-HisC (human (identical sequence in mouse and human)) (Q969G9 whole entry): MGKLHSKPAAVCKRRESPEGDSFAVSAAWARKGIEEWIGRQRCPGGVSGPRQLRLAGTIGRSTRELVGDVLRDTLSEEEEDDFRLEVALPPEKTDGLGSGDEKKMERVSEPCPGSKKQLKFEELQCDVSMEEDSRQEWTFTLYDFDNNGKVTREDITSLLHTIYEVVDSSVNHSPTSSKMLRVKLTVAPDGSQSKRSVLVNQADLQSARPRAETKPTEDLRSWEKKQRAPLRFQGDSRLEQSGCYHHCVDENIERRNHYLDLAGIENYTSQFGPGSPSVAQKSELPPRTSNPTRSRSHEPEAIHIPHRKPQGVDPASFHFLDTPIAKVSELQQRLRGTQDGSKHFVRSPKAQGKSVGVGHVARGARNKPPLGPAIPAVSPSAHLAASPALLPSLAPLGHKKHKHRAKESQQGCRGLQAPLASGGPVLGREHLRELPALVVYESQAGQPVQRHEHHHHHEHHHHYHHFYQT

Nkd1-BirA* mutant G2A [murine] / CELSR1 [human (endogenous in Flp-In-T-REx-293)] chain 1 G2A
response (unweighted spectral counts) [1]: 1

MBP-Axin1-HisC (from UniProt O15169 1-862) (domain or fragment)
molecules per core (molecules per core) [2]: < 5

Nkd1-BirA* mutant G2A [murine] / Notch2 [human (endogenous in Flp-In-T-REx-293)] chain 1 G2A
response (unweighted spectral counts) [3]: 1

Lip-NKD-HisC (from UniProt Q969G9 1-470) (domain or fragment)
stoichiometry N [2]: 10

Nkd1-BirA* (from UniProt Q99MH6) G2A
response (unweighted spectral counts) [4]: 8
